Measurements published in FireProtDB (doi:10.1021/acs.biochem.5b01204).

B1: Sliding clamp, P04525 (parent)
chain: MKLSKDTTALLKNFATINSGIMLKSGQFIMTRAVNGTTYAEANISDVIDFDVAIYDLNGFLGILSLVNDDAEISQSEDGNIKIADARSTIFWPAADPSTVVAPNKPIPFPVASAVTEIKAEDLQQLLRVSRGLQIDTIAITVKEGKIVINGFNKVEDSALTRVKYSLTLGDYDGENTFNFIINMANMKMQPGNYKLLLWAKGKQGAAKFEGEHANYVVALEADSTHDF

Variants of: B1
Conditions: Enterobacteria phage T4; pH 7.4; 25 °C; Urea; CD; Sodium Phosphate Buffer; transition: 3; structure 1CZD; whole UniProt chain shown

Question: For MKLSKDTTALLKNFATINSGIMLKSGQFIMTRAVNGTTYAEANISDVIDFDVAIYDLNGFLGILSLVNDDAEISQSEDGNIKIADARSTIFWPAADPSTVVAPNKPIPFPVASAVTEIKAEDLQQLLRVSRGLQIDTIAITVKEGKIVINGFNKVEDSALTRVKYSLTLGDYDGENTFNFIINMANMKMQPGNYKLLLFAKGKQGAAKFEGEHANYVVALEADSTHDF [W199F], which “denaturant midpoint (higher = more stable)” value is on record?
Answer: 1.9 M

Same assay, conditions: Enterobacteria phage T4; pH 7.4; 25 °C; Urea; CD; Sodium Phosphate Buffer; structure 1CZD; whole UniProt chain shown

Question: Which “denaturant midpoint (higher = more stable)” value does the source give for MKLSKDTTALLKNFATINSGIMLKSGQFIMTRAVNGTTYAEANISDVIDFDVAIYDLNGFLGILSLVNDDAEISQSEDGNIKIADARSTIFFPAADPSTVVAPNKPIPFPVASAVTEIKAEDLQQLLRVSRGLQIDTIAITVKEGKIVINGFNKVEDSALTRVKYSLTLGDYDGENTFNFIINMANMKMQPGNYKLLLWAKGKQGAAKFEGEHANYVVALEADSTHDF [W92F] here?
Answer: 2 M
